Reference: PMC11108873, “Emergence of a clinical Salmonella enterica serovar 1,4,[5], 12: i:-isolate, ST3606, in China with susceptibility decrease to ceftazidime-avibactam carrying a novel blaCTX-M-261 variant and a blaNDM-5” (European Journal of Clinical Microbiology & Infectious …, 2024)

Key:
Test in all cases: purified protein
Conditions in all cases: 50 mM sodium phosphate pH 7.0, 30 °C, BSA added to enzyme dilution
[1] = test system: CC(C)(O/N=C(\C(=O)N[C@@H]1C(=O)N2C(C(=O)[O-])=C(C[n+]3ccccc3)CS[C@H]12)c1csc(N)n1)C(=O)O
[2] = test system: CO/N=C(\C(=O)N[C@@H]1C(=O)N2C(C(=O)O)=C(COC(C)=O)CS[C@H]12)c1csc(N)n1
[3] = test system: CO/N=C(\C(=O)N[C@@H]1C(=O)N2C(C(=O)O)=C(CSc3nc(=O)c(=O)[nH]n3C)CS[C@H]12)c1csc(N)n1
[4] = test system: CO/N=C(\C(=O)N[C@@H]1C(=O)N2C(C(=O)[O-])=C(C[N+]3(C)CCCC3)CS[C@H]12)c1csc(N)n1

CTX-M-1 (Escherichia coli)
Km [1]: 328.8 ± 42 µM
kcat [1]: 43.6 ± 3.7 s⁻¹
kcat/Km [1]: 130000 M⁻¹ s⁻¹
Km [2]: 17.8 ± 2.5 µM
kcat [2]: 111 ± 25 s⁻¹
kcat/Km [2]: 6.2e+06 M⁻¹ s⁻¹
Km [3]: 10.5 ± 1.8 µM
kcat [3]: 105 ± 4.3 s⁻¹
kcat/Km [3]: 9.98e+06 M⁻¹ s⁻¹
Km [4]: 146 ± 21.3 µM
kcat [4]: 27.9 ± 8.6 s⁻¹
kcat/Km [4]: 190000 M⁻¹ s⁻¹
